Laboratory results as given in patent US20190202925A1 (OPI VI IP HOLDCO, published 2019).
Numbering of substitutions follows the chain as printed. Where two headings read alike, the source gives them in different places.

B1: SBT-001 (antibody, V domains shown)
VH: EVQLQQSGAELVKPGASVKISCKASGYTFTDYNMDWVKQSHGKSLEWIGDINPNYESTSYNQKFKGKATLTVDKSSSTAYMEVRSLTSEDTAVFYCARDKGWYFDVWGAGTTVTVSS
VL: ENVLTQSPAIMSASLGEKVTMSCRASSSVKNMYWYQQKSDASPKLWIYYTSNLAPGVPARFSGSGSGNSYSLTISSMEGEDAATYYCQQFTSSPYTFGGGTKLELK
notes: Parental mouse antibody; also called mouse SBT-001
B2: chimeric SBT-004b (antibody, human IgG1, V domains shown)
VH: EVQLQQSGPEVGRPGSSVKISCKASGYTFTDYIMHWVKQSPGQGLEWIGWVDPEYGSTDYAEKFKKKATLTADTSSNTAYIQLSSLTSEDTATYFCARDDGSYSPFDYWGQGVMVTVSS
VL: NIVMTQSPKSMSMSVGERVTLTCKASENVVTYVSWYQQKPEQSPKLLIYGASNRYTGVPDRFTGSGSATDFTLTISSVQAEDLADYHCGQGYSYPYTFGGGTKLEIK
notes: Same heavy chain as chSBT-004 (human IgG1 Fc domain); also called chSBT-004b
B3: SBT-003 (antibody, V domains shown)
VH: QIQLVQSGPELKKPGETVKISCKASGYTFTDYSMHWVKQAPGKGLKWMGWINTETGEPTYADDFKGRFAFSSETSTSTAYLQINNLKNDDTTTYFCATYYGSSYVPDYWGQGTSLTVSS
VL: DIVMTQSHKFMSTSVGDRVSITCKASQNVGTAVAWYQHKPGQSPKLLIYWTSSRHTGVPDRFTGSGSGTEFTLTISNVQSEDLADYFCHQYSDYPYTFGGGTKLEIK
notes: Parental mouse antibody; also called mouse SBT-003
B4: SBT-002 (antibody, V domains shown)
VH: QVTLKESGPGILQPSQTLSLTCSFSGFSLSTSGMGVGWIRQPSGKGLEWLAHIWWDDDKFYNPSLKSQLTISKDTSRNQVFLKLTSVVTADTATYYCARLTGTRYFDYWGQGTTLTVSS
VL: DVQMTQSPSSLSASLGGKVTITCKASQDINKFIAWYQHKPGKGPRLLIHYTSTLQPGIPSKFSGSGSGRDYSFSISNLEPEDIATYYCLQYGNLWTFGGGTKLEIT
notes: Parental mouse antibody; also called mouse SBT-002

Assays:
[1] = molecular target: T1, monomeric cynomolgus TNFR2 extracellular domain (cynomolgus monkey, UniProt A0A2K5VET2 132-366); test: BLI (Octet Red 96), antibody captured on Fc biosensor, monomeric TNFR2 ECD in solution, 1:1 model
T1 construct: extracellular domain; Analyte in the Octet experiments; also called cynomolgus TNFR2 ECD; Cyno TNFR2
T1 sequence: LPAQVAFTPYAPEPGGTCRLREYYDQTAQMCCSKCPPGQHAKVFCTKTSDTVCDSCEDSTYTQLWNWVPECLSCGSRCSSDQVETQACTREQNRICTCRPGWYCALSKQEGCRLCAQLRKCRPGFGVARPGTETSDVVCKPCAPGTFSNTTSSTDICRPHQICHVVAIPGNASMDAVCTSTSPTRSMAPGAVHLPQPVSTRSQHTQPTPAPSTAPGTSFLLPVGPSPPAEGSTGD
Description: (§1) Analysis of binding to the human and cynomolgus TNFR2 ECD was performed using an Octet Red 96 Instrument™ (ForteBio). […] The experiments were performed using five steps: (1) baseline acquisition (60 s); (2) antibody loading on to anti-human or anti-mouse Fc biosensors (120 s); (3) second baseline acquisition (60 s); (4) association of interacting monomeric human or cynomolgus TNFR2 ECD protein for kₒₙ measurement (120 s); and (5) dissociation of interacting monomeric human or cynomolgus TNFR2 ECD for koff measurement (240-3600 s).
(§2) The interacting monomeric human or cynomolgus ECD was used at 5-6 concentrations of a 3-fold concentration series. The data were analyzed using Octet Data Analysis Software 9.0™ (ForteBio) and fit to the 1:1 binding model. The equilibrium dissociation constants (Kd) were calculated by the ratio of […].

[2] = molecular target: T2, monomeric human TNFR2 extracellular domain (human, UniProt P20333 23-257); test: as above
T2 construct: extracellular domain; Analyte in the Octet experiments; also called human TNFR2 ECD
T2 sequence (looked up): T1 sequence with G16S, P36S, Q117P, H164N, A210E, G216S, V223M
Description: as §1, §2

[3] = molecular target: T3, soluble human TNFR2 (human, UniProt P20333 23-257); test: competition ELISA (FIG. 2), plate-bound soluble human TNFR2, constant biotinylated TNFα as competitor
T3 construct: also called soluble TNFR2
T3 sequence (looked up): T1 sequence with G16S, P36S, Q117P, H164N, A210E, G216S, V223M
From the text: (§3) Soluble human TNFR2 was coated on Nunc-Immuno™ plates. […] IC₅₀ values are reported in nM.

[4] = molecular target: T3, soluble human TNFR2; test: competition ELISA: plate-bound soluble TNFR2, antibody titrated against constant biotinylated TNFα, streptavidin-HRP, A450
From the text: as §3
(§4) IC₅₀ values are reported in nM.

[5] = molecular target: T4, human TNFR2 on cells (human, UniProt P20333 23-461); test: cell-based or functional assay
T4 sequence (looked up): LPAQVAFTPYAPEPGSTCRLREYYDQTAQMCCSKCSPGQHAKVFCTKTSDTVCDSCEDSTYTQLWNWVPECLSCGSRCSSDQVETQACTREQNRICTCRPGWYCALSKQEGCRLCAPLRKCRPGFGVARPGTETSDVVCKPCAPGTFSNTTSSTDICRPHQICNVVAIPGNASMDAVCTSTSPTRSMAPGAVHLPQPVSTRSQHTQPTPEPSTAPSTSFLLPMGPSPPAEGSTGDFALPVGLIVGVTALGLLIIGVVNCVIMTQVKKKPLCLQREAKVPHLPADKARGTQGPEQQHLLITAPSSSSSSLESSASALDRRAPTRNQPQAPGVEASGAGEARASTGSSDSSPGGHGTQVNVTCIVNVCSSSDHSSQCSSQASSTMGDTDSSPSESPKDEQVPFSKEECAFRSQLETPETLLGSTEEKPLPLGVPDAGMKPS

[6] = molecular target: T3, soluble human TNFR2; test: competition ELISA: plate-bound soluble human TNFR2, competitor biotinylated TNFα; IC50 relative to unlabelled TNFα = 1.00
Description: (§5) Soluble human TNFR2 (Sino Biological, 10417-H08H) or cynomolgus TNFR2 (Sino Biological, 90102-C08H) was coated on Nunc-Immuno™ plates at 0.1 μg/ml, 0.5 ug/ml, 1 μg/ml, and 5 μg/ml. […] Plates were developed using TMB and stopped with 3 M HCl.
as §4

[7] = molecular target: T5, cynomolgus TNFR2 on cells (cynomolgus); test: flow cytometry on cynomolgus PBMC, antibody at 10 ug/mL, anti-human Fc-PE secondary
T5 construct: whole, on cells; also called cynomolgus TNFR2 on CD4+ and CD8+ T cells
Description: Cynomolgus peripheral blood mononuclear cells (PBMCs) from two independent donors were isolated by diluting whole blood (SNBL USA) 1:1 in PBS (Lonza), layering over Ficoll-Paque Plus (GE Healthcare), and centrifuging for 35 minutes at 400×g. The PBMC fraction was removed, washed 3 times in 2% FBS PBS and counted. 0.3×10⁶ PBMC were resuspended in Fixable Viability Stain 575V (BD) diluted 1:1000 in PBS and incubated for 10 minutes. PBMC were then washed twice in PBS to remove residual viability stain, resuspended in Horizon Brilliant Stain Buffer (BD) with 10 uL per test of human Fc receptor binding inhibitor (eBioscience), and incubated on ice for 20 minutes to block Fc receptors. […] PBMC were incubated 20 minutes on ice and then washed three times with 2% FBS PBS. To visualize TNFR2 chimeric antibody binding, PBMC were resuspended in goat anti-human Fc-PE F(ab′)₂ secondary reagent (Jackson ImmunoResearch) diluted 1:200 in 2% FBS PBS and incubated on ice for 20 minutes. Cells were then washed three times in 2% FBS PBS and resuspended in 200 uL 2% FBS PBS for flow cytometry analysis using a BD FACS Celesta instrument and FACS Diva software. T cells were analyzed for chimeric TNFR2 binding by gating on viable cells defined as lymphocytes using forward and side scatter and as T cells by anti-CD3 staining. CD4⁺ and CD8⁺ subsets were identified using commercial specific antibody conjugates.

[8] = molecular target: T6, soluble cynomolgus TNFR2 (cynomolgus, UniProt A0A2K5VET2 132-366); test: competition ELISA: plate-bound soluble cynomolgus TNFR2, competitor biotinylated TNFα, streptavidin-HRP, A450
T6 sequence: T1 sequence
Description: as §5

[9] = molecular target: T6, soluble cynomolgus TNFR2; test: competition ELISA, plate-bound soluble cynomolgus TNFR2, biotinylated TNFα as competitor
Description: as §5, §4

[10] = molecular target: T4, human TNFR2 on cells; test: flow cytometry on human PBMC, antibody at 10 ug/mL, anti-human Fc-PE secondary
Description: The following day 0.3×10⁶ PBMC were counted and washed with PBS (Lonza). PBMCs were resuspended in Fixable Viability Stain 575V (BD) diluted 1:1,000 in PBS and incubated for 10 minutes. PBMCs were then washed twice in PBS to remove residual viability stain. PBMCs were then resuspended in Horizon Brilliant Stain Buffer (BD) with 10 uL per test of human Fc receptor binding inhibitor (eBioscience) and incubated on ice for 20 minutes to block Fc receptors. […] PBMCs were incubated 20 minutes on ice and then washed three times with 2% FBS PBS. To visualize TNFR chimeric antibody binding, PBMCs were resuspended in goat anti-human Fc-PE F(ab′)₂ secondary reagent (Jackson ImmunoResearch) diluted 1:200 in 2% FBS PBS and incubated on ice for 20 minutes. Cells were then washed three times in 2% FBS PBS and resuspended in 200 uL 2% FBS PBS for flow cytometry analysis using a BD FACS Celesta instrument and FACS Diva software. T cells were analyzed for chimeric TNFR2 binding by gating on viable cells defined as lymphocytes using forward and side scatter and as T cells by anti-CD3 staining. CD4⁺ and CD8⁺ subsets were identified by commercially available specific antibody conjugates.

[11] = molecular target: T3, soluble human TNFR2; test: competition ELISA, plate-bound soluble human TNFR2, biotinylated TNFα as competitor
Description: as §5, §4

[12] = molecular target: T3, soluble human TNFR2; test: competition ELISA: plate-bound soluble human TNFR2, competitor biotinylated TNFα, streptavidin-HRP, A450
Description: as §5

[13] = molecular target: T6, soluble cynomolgus TNFR2; test: competition ELISA: plate-bound soluble cynomolgus TNFR2, competitor biotinylated TNFα; IC50 relative to unlabelled TNFα = 1.00
Description: as §5, §4

[14] = molecular target: T2, monomeric human TNFR2 extracellular …; test: BLI (Octet Red 96), Human TNFR2 Kd (1-1)
[15] = molecular target: T3, soluble human TNFR2; test: competition ELISA: plate-bound soluble human TNFR2, competitor biotinylated TNFα, streptavidin-HRP, A450; remark: listed apart in the source
Description: as §5

[16] = molecular target: T6, soluble cynomolgus TNFR2; test: competition ELISA: plate-bound soluble cynomolgus TNFR2, competitor biotinylated TNFα; IC50 relative to unlabelled TNFα = 1.00; remark: listed apart in the source
Description: as §5

[17] = molecular target: T6, soluble cynomolgus TNFR2; test: competition ELISA: plate-bound soluble cynomolgus TNFR2, competitor biotinylated TNFα, streptavidin-HRP, A450; remark: listed apart in the source
Description: as §5

[18] = molecular target: T3, soluble human TNFR2; test: competition ELISA (FIG. 1), plate-bound soluble human TNFR2, constant biotinylated TNFα as competitor
From the text: as §3

[19] = molecular target: T3, soluble human TNFR2; test: competition ELISA: plate-bound soluble human TNFR2, competitor biotinylated TNFα; IC50 relative to unlabelled TNFα = 1.00; remark: listed apart in the source
Description: as §5

Row | Kd [1] | Kd [2] | IC50 [3] | IC50 [4] | Relative IC50 [6] | IC50 [8] | Average Relative IC50 [9] | Average Relative IC50 [11] | IC50 [12] | Relative IC50 [13] | Kd [14] | other results | Binder
1 | 53.1 nM | 2.7 nM | 9.04 nM | 8.27 nM |  |  |  |  |  |  |  | IC50 (µg/mL) (with pre-incubation); rescue of Jurkat H6 cells from 2 ng/mL TNFα, luminescence [5]: 3.03 µg/mL; IC50 (µg/mL) (without pre-incubation); rescue of Jurkat H6 cells from 2 ng/mL TNFα, luminescence [5]: 2.53 µg/mL | B1
2 | 7.9 nM | 2.8 nM |  |  | 2.33 nM | 15.1 nM | 1.56 | 2.93 nM | 12.9 nM | 1.57 nM |  | % CD4^+ ab^+ Donor 1 [7]: 8%; % CD4^+ ab^+ Donor 2 [7]: 5.5%; % CD8^+ ab^+ Donor 1 [7]: 9.2%; % CD8^+ ab^+ Donor 2 [7]: 11%; % CD4^+ ab^+ Donor 1 [10]: 29.3%; % CD4^+ ab^+ Donor 2 [10]: 18.4%; % CD8^+ ab^+ Donor 1 [10]: 9.1%; % CD8^+ ab^+ Donor 2 [10]: 11.4% | B2
3 |  | 1.2 nM | 10.5 nM | 8.5 nM |  |  |  |  |  |  | 1.2 nM |  | B3
4 | 0.44 nM | 1.3 nM | 5.08 nM |  | 2.17 nM | 19.6 nM | 1.98 | 2.19 nM | 12.1 nM | 2.04 nM | 1.3 nM | IC50 [15]: 5.77 nM; Relative IC50 [16]: 2.13 nM; IC50 [17]: 8 nM; IC50 [18]: 5.12 nM; Relative IC50 [19]: 2.33 nM | B4
